Measurements from PMC7347537.

Target: full-length IRG1 from Bacillus subtilis (immune-responsive gene 1, cis-aconitate decarboxylase) (Bacillus subtilis)
Assay: SEC-MALS; Superdex 200 10/300, 20 mM Tris-HCl (pH 8.0), 150 mM NaCl, 0.4 mL/min, room temperature; DAWN-treos MALS detector

“full-length IRG1 from Bacillus subtilis (immune-responsive gene 1, cis-aconitate decarboxylase) (enzyme)” gave a stoichiometry N of 2.
